The record followed here is publication PMC7486200.

In one data set the target is GATA1 (UniProt P15976 1-413). The data set can be described thus: competition.
The target of the next data set is FAM122A (UniProt Q96E09 1-287). The data set can be described thus: EMSA.
FAM122A, sequence (Q96E09 whole entry): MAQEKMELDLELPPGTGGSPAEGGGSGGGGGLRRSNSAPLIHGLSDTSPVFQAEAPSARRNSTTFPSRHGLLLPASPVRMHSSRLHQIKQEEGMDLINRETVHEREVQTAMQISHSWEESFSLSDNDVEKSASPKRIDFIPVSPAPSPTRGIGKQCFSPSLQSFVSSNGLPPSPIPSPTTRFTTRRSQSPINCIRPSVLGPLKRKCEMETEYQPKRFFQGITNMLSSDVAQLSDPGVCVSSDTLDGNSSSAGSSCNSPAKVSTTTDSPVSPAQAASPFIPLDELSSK

GATA1, sequence (P15976 whole entry): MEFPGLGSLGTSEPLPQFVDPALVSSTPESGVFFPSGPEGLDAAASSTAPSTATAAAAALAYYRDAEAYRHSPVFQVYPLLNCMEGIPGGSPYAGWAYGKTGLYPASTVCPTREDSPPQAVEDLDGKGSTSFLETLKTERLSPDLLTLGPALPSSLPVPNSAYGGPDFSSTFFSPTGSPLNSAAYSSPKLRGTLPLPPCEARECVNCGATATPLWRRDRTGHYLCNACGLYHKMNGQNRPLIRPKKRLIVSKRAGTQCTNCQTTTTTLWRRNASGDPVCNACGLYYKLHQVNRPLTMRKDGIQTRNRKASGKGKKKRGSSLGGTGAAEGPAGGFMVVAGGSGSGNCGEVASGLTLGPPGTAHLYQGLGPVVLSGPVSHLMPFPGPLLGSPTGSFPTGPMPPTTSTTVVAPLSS

B1: mutant GATA competitor (dsDNA)
DNA 1: CACTTAGCGACACAAAGTAGCGACTCT
DNA 2: AGAGTCGCTACTTTGTGTCGCTAAGTG
For B1, in the data set with GATA1, the binding result was “no binding”.

B2: GATA probe, two GATA sites (dsDNA)
DNA 1: CACTTGATAACACAAAGTGATAACTCT
DNA 2: AGAGTTATCACTTTGTGTTATCAAGTG
For B2, the binding result with FAM122A is given as “no binding”.
